These results are taken from paper PMC4134136 (PLoS ONE, 2014).

The series deals with the molecule itself. Kind of series: crystal structure; NOD1 CARD and Ub mixed 1:1, 1 mM each, in GF buffer (25 mM sodium phosphate, 25 mM NaCl, 5 mM DTT, pH 7.0); hanging drop, 100 mM PCB, 25% PEG 1500, pH 9.0 (crystals formed at pH ~8.6); 2.90 Å.

B1: Caspase Recruitment Domain (CARD) of human NOD1, residues serine 16 to glycine 108 (domain or fragment)
chain: SHPHIQLLKSNRELLVTHIRNTQCLVDNLLKNDYFSAEDAEIVCACPTQPDKVRKILDLVQSKGEEVSEFFLYLLQQLADAYVDLRPWLLEIGLE
modifications: dimethyl-arsenic adduct on the sulfhydryl of Cys59 (formed in the crystallization buffer with cacodylate and DTT)
notes: NOD1, human, CARD, residues serine 16 to glycine 108; leucine and glutamic acid inserted between glycine 108 and the 6xHis-tag, from an XhoI restriction site; Purified as a monomer (gel filtration removed residual dimer); in the crystal a homodimer with swapped sixth helices; also called NOD1 CARD; CARD A
Regarding B1, the binding result is “binds”.
